In the supplement of paper PMC10567573:
± gives the standard deviation.

Assay: protein stability index of a GFP-peptide fusion (GPS, HEK-293T) (PSI 1-6); higher = more stable
[1] = treatment: DMSO, c terminus: a fixed tail appended
[2] = treatment: MLN4924 1 uM, 8 h, c terminus: a fixed tail appended
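Also: 24-mer peptide tiles fused after GFP, lentivirally expressed, FACS-sorted into six equal bins by GFP/DsRed ratio, decoded by Illumina sequencing, PSI is the read-weighted mean bin number.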

Sequence	protein stability index [1]	protein stability index [2]	protein stability index (treatment: DMSO, c terminus: native)	protein stability index (treatment: MLN4924 1 uM, 8 h, c terminus: native)
DDDDDDAQILPSRVQGGCYRFDSS [DRICH1]	4.65 ± 0.095	4.88 ± 0.15		
DDIVSGRLPCSFVTLALLGSYTVQ [EPB41L3]	2.72 ± 0.44	2.53 ± 0.53		
DEDFTFGAYQPTVVSSEGRQSRRQ [FBF1]	4.77 ± 0.24	4.89 ± 0.3		
DFLMCYSVAEGYYSHRETVNGSWY [CASP6]	2.88 ± 0.8	2.86 ± 0.79		
DGENLKNEEETPSCMASLWTAPLV [CDC25A]	4.484 ± 0.031	4.5 ± 0.19		
DGKCAYRASYSDGKLKAPPKPCAG [MLH1]	4.11 ± 0.3	4.06 ± 0.056		
DIAAMTNSLFIDRQKCMAHRTRYP [TEKT4]	2.45 ± 0.24	2.57 ± 0.19		
DINSVRYYPSGDAFASGSDDATCR [GNB5]	4.03 ± 0.047	4.22 ± 0.16		
DIVDRGSTNLGVNQAGFTLHSAIY [ADD1]	2.36 ± 0.16	2.49 ± 0.45		
DLKNVKSKIGSTDNIKYQPKGGQV [MAP2]	3.24 ± 0.16	3.54 ± 0.32		
DLNIQLLKDGYRLDEIPDDEDLDL [FAM219A]	5.17 ± 0.16	5.16 ± 0.079		
DLTASHDAALLEMENNHTVAITIL [MTUS2]	2.86 ± 0.21	2.85 ± 0.25		
DLTSSSSDELSWIIELLEKDGMAF [ELF3]	2.86 ± 0.34	3.19 ± 0.29		
DNLLQEMLLGGSPSDAPHAHHPLH [HNF4A]	3.97 ± 0.49	4 ± 0.14		
DPDGEEGSSIPWNHLPDPEIFRQR [ZNF24]	4.97 ± 0.45	5.02 ± 0.15		
DPDGLVATYISEVHEHDGHLYLGS [APMAP]	3.87 ± 0.18	3.94 ± 0.39		
DPHTKKALEAHCRADELASQDGR [PPP2R5C]			5.16 ± 0.29	5.3 ± 0.12
DQDPSVLYFSIHRYEQGRFWPHLK [HDAC6]	2.25 ± 0.41	2.16 ± 0.28		

Sequence	protein stability index [1]	protein stability index [2]	protein stability index (treatment: DMSO, c terminus: native)	protein stability index (treatment: MLN4924 1 uM, 8 h, c terminus: native)
DRLRDEELAELEDALRNLKCGSGA [TRADD]	4.95 ± 0.23	4.95 ± 0.24		
DSARADDARQLFVLAGAAEEGFMT [GNAI1]	4.21 ± 0.22	4.43 ± 0.077		
DSCDRLTQSWSSQSSFNSLQRVPS [ETS1]	3.99 ± 0.24	4.07 ± 0.23		
DSSFPPALAEGYRYPELDTPKLDC [TBX6]	4.7 ± 0.25	4.72 ± 0.17		
DSYYRLVIHRALDREQVSSYNITV [PCDHGA10]	2.87 ± 0.6	2.44 ± 0.55		
DTHNTNNLDTEELCEYFSQHLGEY [NECAB1]	4.41 ± 0.36	4.17 ± 0.33		
DYIMDEDQSKLAGLLDLNNAILQL [ESRRG]	2.35 ± 0.25	2.6 ± 0.39		
EAKEAKGSGYEKLGPSRDPDPLNI [RTP4]	4.9 ± 0.21	4.91 ± 0.18		
EATHEPAAARIRAQVPDTRWSRVG	4.62 ± 0.31	4.05 ± 0.41		
EAVRQEMRRQEPLPPPPPPSRGGN [WAS]	5.18 ± 0.21	5.19 ± 0.11		
ECPSMGTNEAACLLDNPLCADVLF [RHOBTB1]	3.42 ± 0.34	3.94 ± 0.48		
ECRSSVTSDSEGAHVNTLHSGTKR [PHTF1]	4.87 ± 0.32	4.88 ± 0.17		
ECVASNNVGEISVSTRLTVLREDQ [PTPRD]	4.63 ± 0.19	4.54 ± 0.15		
EDAEAVEQLREALHEALLEYEAGR [ESRRA]	4.03 ± 0.35	4.26 ± 0.18		
EDPYMMGRIACANVLSDLYAMGIT [SEPHS2]	2.39 ± 0.19	2.36 ± 0.18		
EDSINNSLVQLQASHQQQVLPPRQ [MYBL2]	4.93 ± 0.14	4.72 ± 0.19		
EEAKGALLGTSGLKRRFSRLENRY [DAPK3]	3.8 ± 0.29	3.96 ± 0.51		
EECPAHLLEDPLCADVILVLQERV [RHOBTB2]	3.4 ± 0.42	3.47 ± 0.52		
